The values that follow come from US20180186885A1 (University of California, published 2018).

For one test, the target named is T1, mouse Fzd7 P188L (mouse, UniProt Q61090 33-572).
T1 construct: also called MEF-Fzd7P188L
The experiment in a line: reactivity of Fab with mouse Fzd7 point mutants (FIG. 4C-D).

Test [1] deals with FZD7 protein on human cancer cells (OVCAR-4, MDA-MB-231, primary tumour tissue) (human, UniProt O75084 33-574). In words: cell-based or functional assay.

B1: FZD7-Fab-1291 (Fab)
light: DVVMSQSPSSLAVSVGEKVTMSCKSSQSLLYSSNQKNYLAWYQQKPGQSPKLLIYWASTRESGVPDRFTGSGSGTDFTLTISSVKAKDLAVYYCQQYYSYPTFGGGTKLEIKRADAAPTVSIFPPSSEQLTSGGASVVCFLNNFYPKDINVKWKIDGSERQNGVLNSWTDQDSKDSTYSMSSTLTLTKDEYERHNSYTCEATHKTSTSPIVKSFNRNESYPYDVPDYAS
heavy: EVQLVESGGGLVKPGGSLKLSCAASGFTFSSYAMSWVRQTPEKRLEWVATISDGGSYTRYPDKLKGRFTISRDNAKNNLYLQMSHLKSEDTAMYYCARVGGRRDYFDYWGQGTTLTVSSAKTTPPSVYPLAPGSAAQTNSMVTLGCLVKGYFPEPVTVTWNSGSLSSGVHTFPAVLQSDLYTLSSSVTVPSSTWPSETVTCNVAHPASSTKVDKKIVPRDCHHHHHHH
notes: The entries as printed end in tag-like residues
For the molecule B1, the binding result in the test with mouse Fzd7 P188L is listed as “binds”.

B2: FZD7-Fab-1791 (Fab)
light: DIVMTQSPKSMSMSVGERVTLRCKASENVLNYVSWYQQKPEQSPKLLIYGASNRYTGVPDRFTGSGSATDFTLTISSVQAEDLADYHCGQSYRYPTFGAGTKLELKRADAAPTVSIFPPSSEQLTSGGASVVCFLNNFYPKDINVKWKIDGSERQNGVLNSWTDQDSKDSTYSMSSTLTLTKDEYERHNSYTCEATHKTSTSPIVKSFNRNESYPYDVPDYAS
heavy: EVQPVESGGGLVQPKGSLKLSCAASGFTFNTYAMHWVRQAPGKGLEWVARIRSKSNNYAKNYDDSVKDRFTISRDDSQSMLYLQMNNLKTEDTAMYYCVRENYGGRFDYWGQGTTLTVSSAKTTPPSVYPLAPGSAAQTNSMVTLGCLVKGYFPEPVTVTWNSGSLSSGVHTFPAVLQSDLYTLSSSVTVPSSTWPSETVTCNVAHPASSTKVDKKIVPRDSHHHHHHH
In the case of B2, the binding result in the test with mouse Fzd7 P188L is listed as “binds”. For the same molecule, in test [1], the “fold decrease in TOP-Flash Wnt reporter (luciferase) activity in MDA-MB-231 cells treated with Wnt3a (0-5 nM), FZD7-Fab-1791 at 200 nM” value is around 3 fold.
